Data reported in US6319685A (Unigene Laboratories, Inc., priority 1987, dated 2001).
Residues, ends and D or L forms follow the SMILES beside them.

Experiments:
alpha-amidating enzyme [1] = target: T1, alpha-amidating enzyme (Rattus norvegicus, UniProt P14925); test: co-factor requirement of alpha-amidating enzyme for maximal activity; type: biochemical; conditions: in vitro, with peptide substrate, oxygen and L-ascorbic acid
T1 sequence (P14925 36-976): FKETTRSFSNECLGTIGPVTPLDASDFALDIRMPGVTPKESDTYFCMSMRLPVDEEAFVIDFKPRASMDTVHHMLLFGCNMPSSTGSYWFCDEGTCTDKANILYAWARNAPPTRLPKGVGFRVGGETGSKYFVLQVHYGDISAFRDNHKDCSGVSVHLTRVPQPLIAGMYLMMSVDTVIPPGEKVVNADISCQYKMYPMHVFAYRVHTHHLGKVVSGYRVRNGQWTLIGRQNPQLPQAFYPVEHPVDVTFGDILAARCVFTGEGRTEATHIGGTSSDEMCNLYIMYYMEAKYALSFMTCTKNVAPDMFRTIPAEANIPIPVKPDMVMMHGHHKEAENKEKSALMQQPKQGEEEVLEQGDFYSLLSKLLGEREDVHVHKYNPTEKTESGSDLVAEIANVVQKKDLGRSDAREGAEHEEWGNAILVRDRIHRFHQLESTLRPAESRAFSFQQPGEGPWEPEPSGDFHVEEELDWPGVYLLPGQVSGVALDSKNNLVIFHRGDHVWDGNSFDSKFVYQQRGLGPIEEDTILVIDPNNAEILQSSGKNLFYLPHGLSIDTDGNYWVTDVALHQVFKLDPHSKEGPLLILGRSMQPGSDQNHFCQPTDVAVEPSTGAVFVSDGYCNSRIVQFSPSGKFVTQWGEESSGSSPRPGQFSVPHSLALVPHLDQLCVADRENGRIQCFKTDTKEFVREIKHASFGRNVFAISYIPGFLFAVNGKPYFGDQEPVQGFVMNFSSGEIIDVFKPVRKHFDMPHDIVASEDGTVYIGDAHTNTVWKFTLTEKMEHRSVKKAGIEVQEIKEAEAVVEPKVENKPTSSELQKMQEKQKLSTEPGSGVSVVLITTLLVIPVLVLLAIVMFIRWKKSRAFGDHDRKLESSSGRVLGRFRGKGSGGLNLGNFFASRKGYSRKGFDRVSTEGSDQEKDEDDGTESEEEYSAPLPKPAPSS

alpha-amidating enzyme [2] = target: T1, alpha-amidating enzyme; test: comparison of assay systems / kinetic analysis of amidation of dansyl-Tyr-Val-Gly, D-Tyr-Val-Gly and 125I-D-Tyr-Val-Gly; type: biochemical
Procedure: (§1) I. Monodansyl L-Tyr-Val-Gly
(§2) The concentration of enzyme used in all experiments was left constant except where noted.
(§3) The reaction mixture for the conversion of the monodansyl substrate contained:
(§4) 5 μl of 100 ug/mL bovine pancreatic catalase
(§5) 5 μl containing 2 nmoles of substrate
(§6) The samples were prepared in duplicate and incubated at 37° C. for 10, 20 and 30 minutes time periods. The enzymatic reaction was halted by the addition of 10 ul 500 mM EDTA. Substrate and product were separated by RP HPLC using an Hewlett Packard-1090 liquid chromatography system, and quantitation was achieved using a HP-3392 integrator.
(§7) D-Tyr-Val-Gly and D-Tyr-Val-NH2 were iodinated using iodobeads from Pierce Chemical Company. The radiolabeied substrate and product were used to calibrate a sulfyl-propyl cation-exchange column. ^125 I D-Tyr-Val-Gly was added to 650 uM D-Tyr-Val-Gly and used as the substrate. The reaction mixture for the conversion of monodansyl substrate contained:
(§8) Samples were incubated for 10, 20, 30 minutes at 37° C. The reaction was stopped by addition of 500 mM EDTA. […] The conversion of radiolabeled substrate to product was linear with respect to time.
The reaction conditions used for the amidation of D-Tyr-Val-Gly are identical to those described for the dansyl and iodinated substrates. Substrate concentration in the reaction mixture was 650 uM. Separation of substrate and product is achieved by gradient elution on RP-HPLC using a HP-1090 liquid chromatography system. The column effluents were monitored at 280 nm. The level of sensitivity for this assay is much lower than that for either dansyl or iodinated substrates.
Furthermore, a somewhat more rigorous kinetic analysis has also been employed to compare the dansyl-Tyr-Val-Gly (Applicants') assay to the D-Tyr-Val-Gly (prior art) assay.

[3] = substrate: CC(C)[C@H](NC(=O)[C@H](N)Cc1ccc(O)cc1)C(=O)NCC(=O)O; test: as above; type: biochemical, rat; conditions: 37.0 °C
Procedure: as §1, §2, §3, §4, §5, §6, §7, §8
The reaction conditions used for the amidation of D-Tyr-Val-Gly are identical to those described for the dansyl and iodinated substrates. Substrate concentration in the reaction mixture was 650 uM. […] The column effluents were monitored at 280 nm. […]

[4] = pH optimum of alpha-amidating enzyme; type: biochemical; conditions: CA-77 cell tissue culture media enzyme
Procedure: 2. The optimum pH for the activity of the enzyme was determined to be pH 5.0-5.5 using N dansyl Tyr-Val-Gly as the substrate (FIG. XVI). However, due to the enhanced stability of the enzyme at neutral pH, it may be beneficial to carry out the amidation reaction at such pH.

[5] = specific alpha-amidating activity, conversion of Dansyl-D-Tyr-Val-Gly to Dansyl-D-Tyr-Val-CONH2; type: biochemical
Procedure: These and other objects will become apparent from a thorough reading of the present disclosure. […] All specific activity units set forth herein are based upon the conversion of Dansyl-D-Try-Val-Gly-COOH to Dansyl-D-Tyr-Val-CONH2. One mU is defined as the amount of activity needed to convert one nanomole (nmole) of Dansyl-D-Tyr-Val-Gly-COOH to one nmole of Dansyl-D-Tyr-Val-CONH2 per minute at 37° C. and pH 7.0 in the presence of ascorbate ions at a concentration of 3 mM (based on total reaction mixture including enzyme, substrate, co-factors, etc.), molecular oxygen in a molar excess over substrate and a concentration of cupric ions effective to maximize activity (usually about 2 μM depending on the state of purity of the enzyme).
Each purification step can be monitored for both protein content and the level of alpha-amidation activity. This information is used to calculate the specific activity of the enzyme which serves as an indicator of the relative purity of the enzyme.
Sephacryl S-300 (Pharmacia) was equilibrated in 50 mM Tris HCl pH 7.0 and poured into a K 50/100 column (Pharmacia) according to the manufacturer's instructions. The bed volume of the column was approximately 1.3 liters. The Sample was loaded onto the column in a volume representing approximately 3 percent of the bed volume of the column. Proteins were eluted from the column in 50 mM Tris HCl pH 7.0 at a flow rate of approximately 2 ml per minute.
as §3
The samples were prepared in duplicate and incubated at 37° C. for 10, 20 and 30 minutes time periods. The enzymatic reaction was halted by the addition of 10 ul 500 mM EDTA.

## catalase
alpha-amidating enzyme [1]
  effect of addition on enzymatic activity: substantially increased

## O=S(=O)([O-])[O-].[Cu+2] [copper sulfate]
alpha-amidating enzyme [1]
  effect of addition on enzymatic activity: substantially increased

## ^125 I-D-Tyr-Val-Gly [125I-D-Tyr-Val-Gly]
alpha-amidating enzyme [2]; each time point (10, 20, 30 minutes), 37° C.
  fractional conversion relative to dansyl-Tyr-Val-Gly: approximately 1.55 times

## CC(C)[C@H](NC(=O)[C@H](N)Cc1ccc(O)cc1)C(=O)NCC(=O)O [D-Tyr-Val-Gly] (HELM PEPTIDE1{[dY].V.G}$$$$V2.0)
alpha-amidating enzyme [2]; comparison of Vmax
  maximal velocity relative to dansyl-Tyr-Val-Gly: approximately 1.48 times

B1: alpha-amidating enzyme (Rattus norvegicus) (protein)
chain: FKETTRSFSNECLGTIGPVTPLDASDFALDIRMPGVTPKESDTYFCMSMRLPVDEEAFVIDFKPRASMDTVHHMLLFGCNMPSSTGSYWFCDEGTCTDKANILYAWARNAPPTRLPKGVGFRVGGETGSKYFVLQVHYGDISAFRDNHKDCSGVSVHLTRVPQPLIAGMYLMMSVDTVIPPGEKVVNADISCQYKMYPMHVFAYRVHTHHLGKVVSGYRVRNGQWTLIGRQNPQLPQAFYPVEHPVDVTFGDILAARCVFTGEGRTEATHIGGTSSDEMCNLYIMYYMEAKYALSFMTCTKNVAPDMFRTIPAEANIPIPVKPDMVMMHGHHKEAENKEKSALMQQPKQGEEEVLEQGDFYSLLSKLLGEREDVHVHKYNPTEKTESGSDLVAEIANVVQKKDLGRSDAREGAEHEEWGNAILVRDRIHRFHQLESTLRPAESRAFSFQQPGEGPWEPEPSGDFHVEEELDWPGVYLLPGQVSGVALDSKNNLVIFHRGDHVWDGNSFDSKFVYQQRGLGPIEEDTILVIDPNNAEILQSSGKNLFYLPHGLSIDTDGNYWVTDVALHQVFKLDPHSKEGPLLILGRSMQPGSDQNHFCQPTDVAVEPSTGAVFVSDGYCNSRIVQFSPSGKFVTQWGEESSGSSPRPGQFSVPHSLALVPHLDQLCVADRENGRIQCFKTDTKEFVREIKHASFGRNVFAISYIPGFLFAVNGKPYFGDQEPVQGFVMNFSSGEIIDVFKPVRKHFDMPHDIVASEDGTVYIGDAHTNTVWKFTLTEKMEHRSVKKAGIEVQEIKEAEAVVEPKVENKPTSSELQKMQEKQKLSTEPGSGVSVVLITTLLVIPVLVLLAIVMFIRWKKSRAFGDHDRKLESSSGRVLGRFRGKGSGGLNLGNFFASRKGYSRKGFDRVSTEGSDQEKDEDDGTESEEEYSAPLPKPAPSS
[3]
  Km: 37 µM
  Vmax: 31 pmol product/min/μl

B2: Peak IV enzyme (CA-77): higher molecular weight form from CA-77 medium, corresponds to peak III derived from MTC tumors (protein, UniProt P14925 36-976, looked up)
Peptidylglycine …: FKETTRSFSNECLGTIGPVTPLDASDFALDIRMPGVTPKESDTYFCMSMRLPVDEEAFVIDFKPRASMDTVHHMLLFGCNMPSSTGSYWFCDEGTCTDKANILYAWARNAPPTRLPKGVGFRVGGETGSKYFVLQVHYGDISAFRDNHKDCSGVSVHLTRVPQPLIAGMYLMMSVDTVIPPGEKVVNADISCQYKMYPMHVFAYRVHTHHLGKVVSGYRVRNGQWTLIGRQNPQLPQAFYPVEHPVDVTFGDILAARCVFTGEGRTEATHIGGTSSDEMCNLYIMYYMEAKYALSFMTCTKNVAPDMFRTIPAEANIPIPVKPDMVMMHGHHKEAENKEKSALMQQPKQGEEEVLEQGDFYSLLSKLLGEREDVHVHKYNPTEKTESGSDLVAEIANVVQKKDLGRSDAREGAEHEEWGNAILVRDRIHRFHQLESTLRPAESRAFSFQQPGEGPWEPEPSGDFHVEEELDWPGVYLLPGQVSGVALDSKNNLVIFHRGDHVWDGNSFDSKFVYQQRGLGPIEEDTILVIDPNNAEILQSSGKNLFYLPHGLSIDTDGNYWVTDVALHQVFKLDPHSKEGPLLILGRSMQPGSDQNHFCQPTDVAVEPSTGAVFVSDGYCNSRIVQFSPSGKFVTQWGEESSGSSPRPGQFSVPHSLALVPHLDQLCVADRENGRIQCFKTDTKEFVREIKHASFGRNVFAISYIPGFLFAVNGKPYFGDQEPVQGFVMNFSSGEIIDVFKPVRKHFDMPHDIVASEDGTVYIGDAHTNTVWKFTLTEKMEHRSVKKAGIEVQEIKEAEAVVEPKVENKPTSSELQKMQEKQKLSTEPGSGVSVVLITTLLVIPVLVLLAIVMFIRWKKSRAFGDHDRKLESSSGRVLGRFRGKGSGGLNLGNFFASRKGYSRKGFDRVSTEGSDQEKDEDDGTESEEEYSAPLPKPAPSS
modifications: higher molecular weight form
[4]
  pH optimum: 5.0-5.5
[5]; CA-77 media, purified enzyme, pH 7.0
  specific activity: approximately 1500 mU/mg protein

B3: peak eluting at 190 mM NaCl: enzyme activity peak from Mono Q HR 5/5 at pH 8.0 eluting at 190 mM NaCl (protein, UniProt P14925 36-976, looked up)
Peptidylglycine …: FKETTRSFSNECLGTIGPVTPLDASDFALDIRMPGVTPKESDTYFCMSMRLPVDEEAFVIDFKPRASMDTVHHMLLFGCNMPSSTGSYWFCDEGTCTDKANILYAWARNAPPTRLPKGVGFRVGGETGSKYFVLQVHYGDISAFRDNHKDCSGVSVHLTRVPQPLIAGMYLMMSVDTVIPPGEKVVNADISCQYKMYPMHVFAYRVHTHHLGKVVSGYRVRNGQWTLIGRQNPQLPQAFYPVEHPVDVTFGDILAARCVFTGEGRTEATHIGGTSSDEMCNLYIMYYMEAKYALSFMTCTKNVAPDMFRTIPAEANIPIPVKPDMVMMHGHHKEAENKEKSALMQQPKQGEEEVLEQGDFYSLLSKLLGEREDVHVHKYNPTEKTESGSDLVAEIANVVQKKDLGRSDAREGAEHEEWGNAILVRDRIHRFHQLESTLRPAESRAFSFQQPGEGPWEPEPSGDFHVEEELDWPGVYLLPGQVSGVALDSKNNLVIFHRGDHVWDGNSFDSKFVYQQRGLGPIEEDTILVIDPNNAEILQSSGKNLFYLPHGLSIDTDGNYWVTDVALHQVFKLDPHSKEGPLLILGRSMQPGSDQNHFCQPTDVAVEPSTGAVFVSDGYCNSRIVQFSPSGKFVTQWGEESSGSSPRPGQFSVPHSLALVPHLDQLCVADRENGRIQCFKTDTKEFVREIKHASFGRNVFAISYIPGFLFAVNGKPYFGDQEPVQGFVMNFSSGEIIDVFKPVRKHFDMPHDIVASEDGTVYIGDAHTNTVWKFTLTEKMEHRSVKKAGIEVQEIKEAEAVVEPKVENKPTSSELQKMQEKQKLSTEPGSGVSVVLITTLLVIPVLVLLAIVMFIRWKKSRAFGDHDRKLESSSGRVLGRFRGKGSGGLNLGNFFASRKGYSRKGFDRVSTEGSDQEKDEDDGTESEEEYSAPLPKPAPSS
modifications: Mono Q fraction
[5]; after Mono Q chromatography at pH 8.0, rat MTC tumor
  specific alpha-amidating activity: at least 80 mU/mg protein
